According to publication PMC5787697, “Transcriptome-wide identification of the RNA-binding landscape of the chromatin-associated protein PARP1 reveals functions in RNA biogenesis”:

Tests used:
[1] = target: T1, PARP1-ΔCAT (human, UniProt P09874 1-662); test: EMSA; monomer-equivalent K, n=2.04±0.13; 25 mM Tris pH 7.5, 75 mM NaCl, 50 mM arginine, 0.1 mM TCEP, 0.1 ug/ul BSA, room temperature 30 min; 0.05 uM probe, 0-2.5 uM protein; native 10% PAGE in TBE; conditions: protein: recombinant; tags: His; chain copies: 2; label: 32P; single strand
T1 sequence (P09874 1-662, stated change not applied): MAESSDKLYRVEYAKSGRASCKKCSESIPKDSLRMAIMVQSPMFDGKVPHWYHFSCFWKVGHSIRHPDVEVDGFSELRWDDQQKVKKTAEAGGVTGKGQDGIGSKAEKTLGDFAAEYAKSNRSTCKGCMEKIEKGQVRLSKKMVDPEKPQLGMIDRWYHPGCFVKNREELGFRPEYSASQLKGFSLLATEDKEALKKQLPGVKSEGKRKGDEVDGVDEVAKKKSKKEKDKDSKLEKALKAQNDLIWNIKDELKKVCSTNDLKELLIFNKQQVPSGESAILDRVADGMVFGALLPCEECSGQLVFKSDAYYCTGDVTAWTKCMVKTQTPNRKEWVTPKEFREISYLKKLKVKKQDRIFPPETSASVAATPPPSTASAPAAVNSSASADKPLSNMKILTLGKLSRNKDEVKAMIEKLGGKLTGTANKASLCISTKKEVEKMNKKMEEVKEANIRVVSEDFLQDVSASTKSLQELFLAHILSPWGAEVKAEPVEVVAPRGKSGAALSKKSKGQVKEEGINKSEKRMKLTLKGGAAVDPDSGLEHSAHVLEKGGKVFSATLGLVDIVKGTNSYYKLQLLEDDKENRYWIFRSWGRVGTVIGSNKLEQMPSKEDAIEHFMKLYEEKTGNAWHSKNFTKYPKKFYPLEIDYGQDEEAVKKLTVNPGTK

[2] = target: T2, PARP1-FL (human, UniProt P09874 1-1014); test: EMSA; monomer-equivalent K, n=1.70±0.14; 25 mM Tris pH 7.5, 75 mM NaCl, 50 mM arginine, 0.1 mM TCEP, 0.1 ug/ul BSA, room temperature 30 min; 0.05 uM probe, 0-2.5 uM protein; native 10% PAGE in TBE; conditions: protein: recombinant; tags: His; chain copies: 2; label: 32P; single strand
T2 sequence (P09874 whole entry): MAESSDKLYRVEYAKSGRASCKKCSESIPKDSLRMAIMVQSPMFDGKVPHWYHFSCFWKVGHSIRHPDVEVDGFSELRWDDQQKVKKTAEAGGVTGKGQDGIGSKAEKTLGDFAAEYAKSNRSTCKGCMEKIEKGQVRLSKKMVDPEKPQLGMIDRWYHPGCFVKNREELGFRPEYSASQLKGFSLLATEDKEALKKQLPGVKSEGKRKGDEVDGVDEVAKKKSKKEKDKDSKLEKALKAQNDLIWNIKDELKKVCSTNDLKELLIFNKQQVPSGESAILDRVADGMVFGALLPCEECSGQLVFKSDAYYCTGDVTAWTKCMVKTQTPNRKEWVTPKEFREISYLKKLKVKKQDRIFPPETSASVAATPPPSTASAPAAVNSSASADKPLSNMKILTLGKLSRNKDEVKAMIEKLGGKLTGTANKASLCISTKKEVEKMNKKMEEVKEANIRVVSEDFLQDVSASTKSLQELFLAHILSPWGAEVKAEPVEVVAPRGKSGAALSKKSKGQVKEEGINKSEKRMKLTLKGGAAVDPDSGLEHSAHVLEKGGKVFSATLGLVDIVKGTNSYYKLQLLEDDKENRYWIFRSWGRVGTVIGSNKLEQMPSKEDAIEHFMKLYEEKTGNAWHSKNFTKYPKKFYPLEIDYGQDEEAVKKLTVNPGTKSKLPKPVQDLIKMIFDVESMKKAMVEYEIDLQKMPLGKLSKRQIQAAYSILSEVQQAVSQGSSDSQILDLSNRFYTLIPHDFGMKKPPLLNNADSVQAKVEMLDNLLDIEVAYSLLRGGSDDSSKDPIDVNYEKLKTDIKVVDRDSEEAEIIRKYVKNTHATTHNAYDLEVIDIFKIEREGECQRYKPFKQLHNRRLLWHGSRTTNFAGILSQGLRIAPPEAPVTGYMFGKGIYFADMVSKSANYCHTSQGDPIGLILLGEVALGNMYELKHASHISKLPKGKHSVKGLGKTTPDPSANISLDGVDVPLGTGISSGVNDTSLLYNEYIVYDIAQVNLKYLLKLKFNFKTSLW

[3] = target: T3, PARP1-ΔZn1ΔZn2 (human, UniProt P09874 216-1014); test: EMSA; monomer-equivalent K, n=2.04±0.15; 25 mM Tris pH 7.5, 75 mM NaCl, 50 mM arginine, 0.1 mM TCEP, 0.1 ug/ul BSA, room temperature 30 min; 0.05 uM probe, 0-2.5 uM protein; native 10% PAGE in TBE; conditions: protein: recombinant; tags: His; chain copies: 2; label: 32P; single strand
T3 sequence (P09874 216-1014, stated change not applied): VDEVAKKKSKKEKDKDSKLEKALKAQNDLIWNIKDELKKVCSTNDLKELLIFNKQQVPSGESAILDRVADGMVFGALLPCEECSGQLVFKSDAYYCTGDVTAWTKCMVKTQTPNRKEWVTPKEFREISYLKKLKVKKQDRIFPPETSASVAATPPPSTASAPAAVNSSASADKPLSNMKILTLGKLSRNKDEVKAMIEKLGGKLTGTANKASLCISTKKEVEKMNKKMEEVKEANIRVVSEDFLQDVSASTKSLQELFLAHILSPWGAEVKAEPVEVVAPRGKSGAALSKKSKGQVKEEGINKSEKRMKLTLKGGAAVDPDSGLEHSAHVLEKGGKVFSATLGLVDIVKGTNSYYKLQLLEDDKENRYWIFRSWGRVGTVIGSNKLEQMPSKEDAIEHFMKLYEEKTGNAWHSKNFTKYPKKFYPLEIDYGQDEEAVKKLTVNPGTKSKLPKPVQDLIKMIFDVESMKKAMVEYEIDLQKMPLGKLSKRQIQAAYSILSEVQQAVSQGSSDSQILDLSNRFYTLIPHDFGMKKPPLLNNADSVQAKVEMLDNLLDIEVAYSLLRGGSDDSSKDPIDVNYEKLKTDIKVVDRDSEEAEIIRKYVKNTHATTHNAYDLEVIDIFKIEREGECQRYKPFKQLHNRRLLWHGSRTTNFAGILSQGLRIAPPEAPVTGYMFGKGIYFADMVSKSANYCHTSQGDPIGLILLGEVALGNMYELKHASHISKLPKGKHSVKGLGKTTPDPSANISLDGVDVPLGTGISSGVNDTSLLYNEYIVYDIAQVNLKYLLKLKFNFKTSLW

[4] = target: T1, PARP1-ΔCAT; test: competition EMSA; vs N1 in same reaction; 25 mM Tris pH 7.5, 75 mM NaCl, 50 mM arginine, 0.1 mM TCEP, 0.1 ug/ul BSA, room temperature 30 min; 0.05 uM probe, 0-2.5 uM protein; native 10% PAGE in TBE; conditions: protein: recombinant; tags: His; chain copies: 2; label: 32P; single strand
[5] = target: T2, PARP1-FL; test: as above; conditions: protein: recombinant; tags: His; label: 32P; single strand
[6] = target: T3, PARP1-ΔZn1ΔZn2; test: as above; conditions: protein: recombinant; tags: His; chain copies: 2; label: 32P; single strand
[7] = target: T2, PARP1-FL; test: EMSA; monomer-equivalent K, n=2.17±0.15; 25 mM Tris pH 7.5, 75 mM NaCl, 50 mM arginine, 0.1 mM TCEP, 0.1 ug/ul BSA, room temperature 30 min; 0.05 uM probe, 0-2.5 uM protein; native 10% PAGE in TBE; conditions: protein: recombinant; tags: His; chain copies: 2; label: 32P; single strand
[8] = target: T3, PARP1-ΔZn1ΔZn2; test: EMSA; monomer-equivalent K, n=2.16±0.19; 25 mM Tris pH 7.5, 75 mM NaCl, 50 mM arginine, 0.1 mM TCEP, 0.1 ug/ul BSA, room temperature 30 min; 0.05 uM probe, 0-2.5 uM protein; native 10% PAGE in TBE; conditions: protein: recombinant; tags: His; chain copies: 2; label: 32P; single strand
[9] = target: T1, PARP1-ΔCAT; test: EMSA; monomer-equivalent K, n=2.77±0.13; 25 mM Tris pH 7.5, 75 mM NaCl, 50 mM arginine, 0.1 mM TCEP, 0.1 ug/ul BSA, room temperature 30 min; 0.05 uM probe, 0-2.5 uM protein; native 10% PAGE in TBE; conditions: protein: recombinant; tags: His; chain copies: 2; label: 32P; single strand

B1: 20-mer ssRNA (ssRNA)
RNA: CCGUACGCGGGUUUAAACGA
Q: With B1 as the binder, how does the Ka [1] read?
A: 770000 M⁻¹

Q: And the Ka [2]?
A: 2.43e+06 M⁻¹

Q: And the Ka [3]?
A: 1.13e+06 M⁻¹

B2: 19-mer ssDNA (ssDNA)
DNA: TAGGCACCGGCATCTTGAC
Q: With B2 as the binder, how does the binding signal [4] read?
A: 15.7 ± 3.9 KDNA/KRNA

Q: What about the binding signal [5] of the same binder?
A: 25.3 ± 3 KDNA/KRNA

Q: And the binding signal [6]?
A: 0.0153 ± 0.021 KDNA/KRNA

B3: 24-mer ssRNA (ssRNA)
RNA: CGUACGCGGAAUAGUUUAAACUGU
Q: What does the source list for B3?
A: Ka [7]: 2.88e+06 M⁻¹; Ka [8]: 1.91e+06 M⁻¹; Ka [9]: 2.91e+06 M⁻¹
